Test results as given in the nanobody polyreactivity screen of Harvey et al. (2022).

Assay: yeast display, Sf9 membrane polyspecificity reagent, FACS + sequencing; frameworks hold sequencing errors
Outline: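 Synthetic nanobody libraries on Saccharomyces cerevisiae BJ5465 were galactose-induced for 36–48 hours, stained 1 hour at 4 °C with 10% biotinylated, detergent-solubilized Sf9 membrane reagent and enriched on streptavidin microbeads. FACS then separated cells into low and high (top ~1%) gates by anti-HA (expression) and streptavidin (reagent binding) fluorescence. Genes were colony-PCR amplified, MiSeq 2 × 250 sequenced and CDR-length filtered. A clone's polyreactivity label is that of its gate of origin.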

Sequence	polyreactivity (PSR sort gate)
QVQLVESGGGLVQAGGSLRLSCAASGLTFRWYAMGWYRQAPGKERELVAAISSSGRTNYADSVKGRFTISRDNAKNTVYLQMNSLKPEDTAVYYCAADSSWRTSDYWGQGTQVTVSS	low polyreactivity
QVQLVESGGGLVQAGGSLRLSCAASGLTFRWYAMGWYRRAPGKERELVAAISSGGSTNYADSVKGRFTISRDNAKNTVYLQMNSLKPEDTAVYYCNAKGRPWFKYDYWGQGTQVTVSS	high polyreactivity
QVQLVESGGGLVQAGGSLRLSCAASGLTFRYYAMGWYRQAPGKERELVAAINYSGGGTYYADSVKGRFTISRDNAKNTVYLQMNSLKPEDTAVYYCNAAYRGYYYWGQGTQVTVSS	high polyreactivity
QVQLVESGGGLVQAGGSLRLSCAASGLTFRYYAMGWYRQAPGKERELVAAITGSGGSTYYADSVKGRFTISRDNAKNTVYLQMNSLKPEDTAVYYCADVIAEYDYFSYYYEYDYWGQGTQVTVSS	high polyreactivity
QVQLVESGGGLVQAGGSLRLSCAASGLTFRYYAMGWYRQAPGKERELVAAITRRGSTYYADSVKGRFTISRDNAKNTVYLQMISLKPEDTAVYYCATVTGFHSSPLRDLDYWGQGTQVTVSS	high polyreactivity
QVQLVESGGGLVQAGGSLRLSCAASGLTFRYYAMGWYRQAPGKERELVAAITRRGSTYYADSVKGRFTISRDNAKNTVYLQMNCLKPEDTAVYYCATVTGFHSSPLRDLDYWGQGTQVTVSS	high polyreactivity
QVQLVESGGGLVQAGGSLRLSCAASGLTFRYYSMGWYSQAPGKERELVASISWSGASTYYADSVKGRFTISRDNAKNTVYLQMNSLKPEDTGVYYCNAGYYGSYDYWGQGTQVTVSS	high polyreactivity
QVQLVESGGGLVQAGGSLRLSCAASGLTFRYYTMGWYRQAPGKERELVAAISRTVGSTYYADSVKGRFTISRDNAKNTVYLQMNSLKPEDTAVYYCAAKYEQYSPAVIYYYWGQGTQVTVSS	high polyreactivity
QVQLVESGGGLVQAGGSLRLSCAASGLTFSAYAMGWYRQAPGKERELVAAITSSGGSTYADSVKGRFTISRDNAKNTVYLQMNSLKPEDTAVYYCNADLGDYGWYSSYDYWGQGTQVTVSS	low polyreactivity
QVQLVESGGGLVQAGGSLRLSCAASGLTFSAYAMGWYRQAPGKERELVAAITSSGGSTYADSVKGRFTLSRDNAKNTVYLQMNSRKPEDTAVYYCNADLGDYGWYSSYDYWGQGNQVTVSS	low polyreactivity
QVQLVESGGGLVQAGGSLRLSCAASGLTFSGNVMGCYIQAPGKERELVAAIDRSGGSTYYADSVKGRFTISRDNAKNTVYLQMNSLKPEDTAVYYCAVSSYPNHSRSWDDYWGQGTQVTVSS	low polyreactivity
QVQLVESGGGLVQAGGSLRLSCAASGLTFSHYAMGWYRQAPGKERELVAGISSRGGNTYYADSVKGRFTISRDNAKNTVYLQMNSLKPEDTAVYYCATPRSRTDGYDYWGQGTQVTVSS	high polyreactivity
QVQLVESGGGLVQAGGSLRLSCAASGLTFSIYAMGWYRQAPGKERELVAAISWSGGSTYYADSVKGRFTISRDNAKNTVYLQMNSLKPEDTAVYYCAARVYRPWWRYDYWGQGTQVTVSS	high polyreactivity
QVQLVESGGGLVQAGGSLRLSCAASGLTFSIYAMGWYRQAPGKERELVAGISQSGGSTYADSVKGRFTISRDNAKNTVYLQMNSLKPADTAVYYCAKEFEWVGSPSTVDGLDYWGHGTQVTVSS	low polyreactivity
QVQLVESGGGLVQAGGSLRLSCAASGLTFSRNAMGWYRQAPGKERELFATINSGGRTNYADSVKGRFTISRDNAKNTVYLQMNSQKPEDTAVYYCAVRTYSNYRAIVPYCRYDYWGQGTQVTVSS	high polyreactivity
QVQLVESGGGLVQAGGSLRLSCAASGLTFSRNTMGWYRQAPGKERELVDTIDRGGRTNYADSVKGRFTISRDNAKNTVYLQMNSLKPEDTAVYYCATDASFYDPDLYPYGYDYWGQGTQVTVSS	high polyreactivity
QVQLVESGGGLVQAGGSLRLSCAASGLTFSYYAMGWYRQAPGKERELVAAITSGGNTNYADSVKGRFTISRDNAKNTVYLQMNSLKPEDTAVYYCAARFYFTRSFPRKFYYWGQGTQVTVSS	high polyreactivity
QVQLVESGGGLVQAGGSLRLSCAASGLTFSYYVMGWYRQAPGKVRELVAAISSGGSTNYADSVKGRFTMSRDNAKNTVYLQLNSLKPEDTAVYYCAARNARADKQCTRWRNYWGQGTQVTVSS	low polyreactivity
QVQLVESGGGLVQAGGSLRLSCAASGLTFTGYAMGWYRQATGKERELVASISRSGASTFYADSVKGRFTISRDNAKNTVYLQMNSLKPEDTAVYYCAAVPGWLTSRYYYWGQGTQVTVSS	high polyreactivity
QVQLVESGGGLVQAGGSLRLSCAASGLTFTLYTMGWYRQAPGKEREFVAVISGTGGRTYYADSVKGRFTISRDNAKNTVYLQMNSLKPEDTAVYYCATCYSFRYWGQGTQVTVSS	high polyreactivity
QVQLVESGGGLVQAGGSLRLSCAASGLTFTSYVMGWYRQAPGKERELVAAIRWSGGRTYYADSVKGRFTISRDNAKNTVYLQMNSLKPEDTAVYYCAAQWYSGSHGYYYWGQGTQVTVSS	high polyreactivity
QVQLVESGGGLVQAGGSLRLSCAASGLTFTVYGMGWSRQAPGKEREFVATISRRGGRTYYADSVKGRFTISRDNAKNTVYVLLNSLKPEDTAVYYCNADIGTYVRSGGGDYWGQGTQVTVSS	low polyreactivity

Sequence	polyreactivity (PSR sort gate)
QVQLVESGGGLVQAGGSLRLSCAASGLTFTYNAMGGYRQAPGKERELVAAITSGGNTNYADSVKGRFTISRDNAKNTVYLQMKSLKPEDTAVYYCATDRKNGISGRYGYWGQGTQVTVSS	low polyreactivity
QVQLVESGGGLVQAGGSLRLSCAASGLTFVAYAMGWYRQAPGKERELVASISSRTGGTSYADSVKGRFTISRDNAKNTVYLQMNSLKPEDTAVYYCNAAARRYTSVFYTSGYTFDYWGQGTQVTVSS	low polyreactivity
QVQLVESGGGLVQAGGSLRLSCAASGLTFVFYAMGWYRQAPGKERELVAAISWSTGRTYYADSVKGRFTISRDNAKNTVYLQMNSLKPEGTAVYYCAASYLGRKYDYWGQGTQVTVSS	high polyreactivity
QVQLVESGGGLVQAGGSLRLSCAASGLTFVKNVMGWYRQAPGKERELVAAISRRGGSTYSADSVKGRFTISRDNAKNTVYLQMNSLQPADTAVYYCAARTPSPTRPQYYYWGQGTQVTVSS	high polyreactivity
QVQLVESGGGLVQAGGSLRLSCAASGLTFVLYAMGWYRQAPGKERELVAAISKRGGSTNYADSVKGRFTISRDIAKNTVYLQMNSLKPEDTAVYYCAARYPQGGTGKATYVRSRSGYWGQGTKVTVSS	high polyreactivity
QVQLVESGGGLVQAGGSLRLSCAASGLTFVLYAMGWYRQAPGQERELVAAISKRGGSTNYADSVKGRFTISRDNAKNTVYLQMNSLKPADTAVYYCAPRYPQGGTGKATYVRSRSGYWGQGTQVTVSS	high polyreactivity
QVQLVESGGGLVQAGGSLRLSCAASGLTFVPNAMGWYRQAPGKERELFAAISNNGGRTYYADSVKGRFTISRDNAKNTVYLQMNSLKPEDTAVYYCANYLSPGERHSYDYWGQGTKVTVSS	high polyreactivity
QVQLVESGGGLVQAGGSLRLSCAASGLTFVRYTMGWYRQAPGKERELVADISSVGSTYYADSVKGRFTISRDNAKNTVYLQMNSLKPQDTAVYYCNTSYIIWYDSWGQGTQVTVSS	low polyreactivity
QVQLVESGGGLVQAGGSLRLSCAASGLTFVWYAMGWYIQAPGKERELVAGITSGGRTYYADSVKGRFTISRDNAKNTVYLQMISLKPEDTGVYDCNAVVRWGYGYDYWGQGTQVTVSS	high polyreactivity
QVQLVESGGGLVQAGGSLRLSCAASGLTFVWYAMGWYRQAPGKERELVAAIRGGGSTYYADSVKGRFTISRDNAKNTVYLQMNSLKPEDTAVYYCNARYYGAHSPYRFDYWGQGTQVTVSS	high polyreactivity
QVQLVESGGGLVQAGGSLRLSCAASGLTFVWYGKGWYRQATGKERELVAAITRGGSTYYADSVKGRFTISRDNAKNTVYLQMKSLKPEDTAVYYCAARRLERRVRPGYYPYDYWVQGTQVTVSS	high polyreactivity
QVQLVESGGGLVQAGGSLRLSCAASGLTFVWYGMGWYRQAPGKERELVAAITRGGSTYYADSVKGRFTISRDNAKNTVYLQMNSLKPEDTAVYYCAARYKYTGYDYWGQGTQVTVSS	high polyreactivity
QVQLVESGGGLVQAGGSLRLSCAASGLTFVWYSMGWYRHAPGKERELVAGITSGGRTYYADSVKGRFTISRDNAKNTVYLQMNRLKPEDTAVYYCAAYGNYNEYDSWGQGTQVSVSS	high polyreactivity
QVQLVESGGGLVQAGGSLRLSCAASGLTFVYNAMGWYRQATGKERELVAAISRVGSTNYADSVKGRFTISRDNAKYTVYLQLNSLKPADTAVYYCNKGNAYVVYTSGYDYWGQGTQVTVSS	low polyreactivity
QVQLVESGGGLVQAGGSLRLSCAASGLTFVYYVLGWYRQAPGKESELVAAITDGGSTYYADSVKGRFTISRDNAKNTVYLQMNSRKPEDTAVYYCAADYYWLYGRWGVDYWGQGTQVTVSS	high polyreactivity
QVQLVESGGGLVQAGGSLRLSCAASGLTFWANTMGWYRQAPGKERELVAAITWSGGSTYYADSVKGRFTISRDNAKNTFYLQMNSLKPEDNAVYYCAAEEFFSAGYSYYYWGQGTQVTVSS	low polyreactivity
QVQLVESGGGLVQAGGSLRLSCAASGLTFWAYAMGWYRQEPGKEREFVAAISWSVDSTYYADSVKGRFTISRDNAKNTVYLQMNSLKPEDTAVYYCAAEWYYVYIAPYRYYYRGQGTQVTVSS	low polyreactivity
QVQLVESGGGLVQAGGSLRLSCAASGLTFWFNAMGWYRQAHGKEREFVAAISLSSTYYADSVKGRFTISRDNAKNTVYLQMNSLKPEDTAVYYCAAELSVSLYDFDYWGQGTQETVSS	high polyreactivity
QVQLVESGGGLVQAGGSLRLSCAASGLTFWPYAMGWYRQAPGKERELVAAISSSGRTYYADSVKGRFTISRDNAKNTVYLQMNSLKPEDTAVYYCARRFWFHYYGYDYWGQGTQVTVSS	high polyreactivity
QVQLVESGGGLVQAGGSLRLSCAASGLTFWRYAMGWYRQAPGKERELVAGISSSTGSTYYADSVKGRFTISRDNAKNTVYLQMNSLKPEDTAVYYCNAYVRRIVRSYYWGQGTQVTVSS	high polyreactivity
QVQLVESGGGLVQAGGSLRLSCAASGLTFWYYAMGWYRQAPGKERELVAAIDWSGASTYYADSVKGRFTISRDNAKNTVYLQMYSLKPEDTAVYYCNTVYYIGDDYWGQGTQVTVSS	high polyreactivity
